Target: T1, FcγRIIa R (human, UniProt P12318 34-217)
T1 construct: extracellular domain; also called FcgRIIa R type; 2aR
T1 sequence (looked up): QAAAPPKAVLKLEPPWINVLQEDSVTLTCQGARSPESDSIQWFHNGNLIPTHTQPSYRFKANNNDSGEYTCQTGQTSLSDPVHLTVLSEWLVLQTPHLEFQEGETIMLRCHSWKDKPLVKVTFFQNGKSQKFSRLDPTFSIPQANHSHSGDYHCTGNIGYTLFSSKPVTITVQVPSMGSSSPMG
Assay: SPR (Biacore), captured antibody, FcγR as analyte; relative binding activity

B1: GpH7-B3 variant L235_20W/GpL16-k0 (antibody, human IgG1, kappa)
heavy: not shown
light: DIVMTQSPLSLPVTPGEPASISCQASESLVHSNRNTYLHWYLQKPGQSPQLLIYKVSNRFSGVPDRFSGSGSGTDFTLKISRVEAEDVGVYYCSQNTHVPPTFGQGTKVEIERTVAAPSVFIFPPSDEQLKSGTASVVCLLNNFYPREAKVQWKVDNALQSGNSQESVTEQDSKDSTYSLSSTLTLSKADYEKHKVYACEVTHQGLSSPVTKSFNRGEC
notes: also called Ho Ab L235_20W
In the case of B1, the Ho/Con_2aR is reported as 114 % (GpH7-B3/GpL16-k0 = 100).

B2: GpH7-A5/GpH7-B3 variant N325_01G/GpL16-k0 (antibody, human IgG1, kappa)
heavy 1: not shown
heavy 2: not shown
light: B1 light
notes: also called He Ab N325_01G
B2 was tested, and the He/Con_2aR was 107 % (GpH7-A5/GpH7-B3/GpL16-k0 = 100).

B3: GpH7-A5/GpH7-B3 variant A330_11K/GpL16-k0 (antibody, human IgG1, kappa)
heavy 1: not shown
heavy 2: not shown
light: B1 light
notes: also called He Ab A330_11K
For B3, the He/Con_2aR was 110 % (GpH7-A5/GpH7-B3/GpL16-k0 = 100).

B4: GpH7-B3 variant N325_14T/GpL16-k0 (antibody, human IgG1, kappa)
heavy: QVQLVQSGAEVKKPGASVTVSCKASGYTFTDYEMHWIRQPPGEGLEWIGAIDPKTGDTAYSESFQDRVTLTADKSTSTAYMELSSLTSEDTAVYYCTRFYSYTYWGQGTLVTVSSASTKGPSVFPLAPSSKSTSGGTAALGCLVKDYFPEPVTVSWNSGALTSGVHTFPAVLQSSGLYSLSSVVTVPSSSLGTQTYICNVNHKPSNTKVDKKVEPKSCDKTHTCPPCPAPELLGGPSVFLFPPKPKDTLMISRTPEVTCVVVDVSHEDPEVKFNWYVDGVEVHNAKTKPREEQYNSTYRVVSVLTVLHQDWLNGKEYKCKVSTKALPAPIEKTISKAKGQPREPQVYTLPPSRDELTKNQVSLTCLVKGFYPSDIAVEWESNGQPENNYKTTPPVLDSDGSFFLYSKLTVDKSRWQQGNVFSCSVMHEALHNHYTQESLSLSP
light: B1 light
notes: also called Ho Ab N325_14T
B4 was tested, and the Ho/Con_2aR was 60.2 % (GpH7-B3/GpL16-k0 = 100).

B5: GpH7-B3 variant L328_14T/GpL16-k0 (antibody, human IgG1, kappa)
heavy: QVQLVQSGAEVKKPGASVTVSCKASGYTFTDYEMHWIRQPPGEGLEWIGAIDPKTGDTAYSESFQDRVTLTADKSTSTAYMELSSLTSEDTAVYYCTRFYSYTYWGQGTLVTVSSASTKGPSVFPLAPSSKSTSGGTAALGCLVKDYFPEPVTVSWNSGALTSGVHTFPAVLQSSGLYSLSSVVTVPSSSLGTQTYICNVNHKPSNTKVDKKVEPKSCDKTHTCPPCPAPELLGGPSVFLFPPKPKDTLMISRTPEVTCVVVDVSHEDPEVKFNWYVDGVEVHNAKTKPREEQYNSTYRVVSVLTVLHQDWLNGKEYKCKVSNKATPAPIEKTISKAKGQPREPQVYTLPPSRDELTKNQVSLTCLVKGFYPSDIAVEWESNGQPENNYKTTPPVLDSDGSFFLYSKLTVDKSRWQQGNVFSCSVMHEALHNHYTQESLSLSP
light: B1 light
notes: also called Ho Ab L328_14T
For B5, the Ho/Con_2aR was 118 % (GpH7-B3/GpL16-k0 = 100).

B6: GpH7-A5/GpH7-B3 variant A330_01G/GpL16-k0 (antibody, human IgG1, kappa)
heavy 1: not shown
heavy 2: not shown
light: B1 light
notes: also called He Ab A330_01G
In the case of B6, the He/Con_2aR is reported as 109 % (GpH7-A5/GpH7-B3/GpL16-k0 = 100).

B7: GpH7-B3 variant N325_09D/GpL16-k0 (antibody, human IgG1, kappa)
heavy: not shown
light: B1 light
notes: also called Ho Ab N325_09D
For B7, the Ho/Con_2aR was 74.8 % (GpH7-B3/GpL16-k0 = 100).

B8: GpH7-A5/GpH7-B3 variant A327_10E/GpL16-k0 (antibody, human IgG1, kappa)
heavy 1: not shown
heavy 2: not shown
light: B1 light
notes: also called He Ab A327_10E
With B8 the He/Con_2aR was 110 % (GpH7-A5/GpH7-B3/GpL16-k0 = 100).

B9: GpH7-A5/GpH7-B3 variant E333_05P/GpL16-k0 (antibody, human IgG1, kappa)
heavy 1: not shown
heavy 2: not shown
light: B1 light
notes: also called He Ab E333_05P
In the case of B9, the He/Con_2aR is reported as 105 % (GpH7-A5/GpH7-B3/GpL16-k0 = 100).

B10: GpH7-B3 variant P238_15Y/GpL16-k0 (antibody, human IgG1, kappa)
heavy: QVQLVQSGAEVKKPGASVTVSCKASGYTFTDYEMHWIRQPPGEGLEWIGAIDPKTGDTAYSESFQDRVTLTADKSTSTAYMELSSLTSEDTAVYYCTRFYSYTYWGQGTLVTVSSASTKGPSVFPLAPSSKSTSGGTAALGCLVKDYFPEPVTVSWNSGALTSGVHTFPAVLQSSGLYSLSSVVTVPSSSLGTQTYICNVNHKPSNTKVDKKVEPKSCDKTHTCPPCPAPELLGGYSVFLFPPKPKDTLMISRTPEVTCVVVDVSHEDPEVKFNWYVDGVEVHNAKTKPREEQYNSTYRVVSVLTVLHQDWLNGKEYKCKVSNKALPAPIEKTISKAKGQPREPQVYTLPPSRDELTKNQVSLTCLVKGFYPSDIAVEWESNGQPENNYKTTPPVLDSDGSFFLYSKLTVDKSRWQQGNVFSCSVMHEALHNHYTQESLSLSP
light: B1 light
notes: also called Ho Ab P238_15Y
With B10 the Ho/Con_2aR was 95.9 % (GpH7-B3/GpL16-k0 = 100).

B11: GpH7-B3 variant N325_03V/GpL16-k0 (antibody, human IgG1, kappa)
heavy: not shown
light: B1 light
notes: also called Ho Ab N325_03V
With B11 the Ho/Con_2aR was 37.8 % (GpH7-B3/GpL16-k0 = 100).

B12: GpH7-A5/GpH7-B3 variant A330_12R/GpL16-k0 (antibody, human IgG1, kappa)
heavy 1: not shown
heavy 2: not shown
light: B1 light
notes: also called He Ab A330_12R
B12 was tested, and the He/Con_2aR was 104 % (GpH7-A5/GpH7-B3/GpL16-k0 = 100).

B13: GpH7-B3 variant P238_06M/GpL16-k0 (antibody, human IgG1, kappa)
heavy: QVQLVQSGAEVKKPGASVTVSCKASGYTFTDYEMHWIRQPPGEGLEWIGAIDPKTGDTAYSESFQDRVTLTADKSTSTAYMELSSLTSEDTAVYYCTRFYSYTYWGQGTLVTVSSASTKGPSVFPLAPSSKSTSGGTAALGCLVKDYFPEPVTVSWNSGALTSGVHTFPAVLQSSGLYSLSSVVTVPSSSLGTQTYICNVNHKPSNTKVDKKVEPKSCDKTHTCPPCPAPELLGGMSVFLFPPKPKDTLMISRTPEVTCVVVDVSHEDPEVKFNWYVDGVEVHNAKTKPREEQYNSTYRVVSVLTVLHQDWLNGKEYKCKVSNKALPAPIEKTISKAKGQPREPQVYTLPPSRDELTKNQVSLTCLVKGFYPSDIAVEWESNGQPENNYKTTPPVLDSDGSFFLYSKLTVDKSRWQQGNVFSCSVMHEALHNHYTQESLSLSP
light: B1 light
notes: also called Ho Ab P238_06M
With B13 the Ho/Con_2aR was 88.9 % (GpH7-B3/GpL16-k0 = 100).

B14: GpH7-A5/GpH7-B3 variant A327_09D/GpL16-k0 (antibody, human IgG1, kappa)
heavy 1: not shown
heavy 2: not shown
light: B1 light
notes: also called He Ab A327_09D
B14 was tested, and the He/Con_2aR was 124 % (GpH7-A5/GpH7-B3/GpL16-k0 = 100).

B15: GpH7-B3 variant L328_13S/GpL16-k0 (antibody, human IgG1, kappa)
heavy: not shown
light: B1 light
notes: also called Ho Ab L328_13S
With B15 the Ho/Con_2aR was 108 % (GpH7-B3/GpL16-k0 = 100).

B16: GpH7-A5/GpH7-B3 variant E269_09D/GpL16-k0 (antibody, human IgG1, kappa)
heavy 1: not shown
heavy 2: not shown
light: B1 light
notes: also called He Ab E269_09D
In the case of B16, the He/Con_2aR is reported as 105 % (GpH7-A5/GpH7-B3/GpL16-k0 = 100).

B17: GpH7-B3 variant P238_03V/GpL16-k0 (antibody, human IgG1, kappa)
heavy: not shown
light: B1 light
notes: also called Ho Ab P238_03V
For B17, the Ho/Con_2aR was 116 % (GpH7-B3/GpL16-k0 = 100).

B18: GpH7-B3 variant N325_20W/GpL16-k0 (antibody, human IgG1, kappa)
heavy: not shown
light: B1 light
notes: also called Ho Ab N325_20W
In the case of B18, the Ho/Con_2aR is reported as 56 % (GpH7-B3/GpL16-k0 = 100).

B19: GpH7-A5/GpH7-B3 variant E333_04F/GpL16-k0 (antibody, human IgG1, kappa)
heavy 1: not shown
heavy 2: not shown
light: B1 light
notes: also called He Ab E333_04F
For B19, the He/Con_2aR was 102 % (GpH7-A5/GpH7-B3/GpL16-k0 = 100).

B20: GpH7-B3 variant N325_08L/GpL16-k0 (antibody, human IgG1, kappa)
heavy: not shown
light: B1 light
notes: also called Ho Ab N325_08L
For B20, the Ho/Con_2aR was 95 % (GpH7-B3/GpL16-k0 = 100).

B21: GpH7-B3 variant N325_15Y/GpL16-k0 (antibody, human IgG1, kappa)
heavy: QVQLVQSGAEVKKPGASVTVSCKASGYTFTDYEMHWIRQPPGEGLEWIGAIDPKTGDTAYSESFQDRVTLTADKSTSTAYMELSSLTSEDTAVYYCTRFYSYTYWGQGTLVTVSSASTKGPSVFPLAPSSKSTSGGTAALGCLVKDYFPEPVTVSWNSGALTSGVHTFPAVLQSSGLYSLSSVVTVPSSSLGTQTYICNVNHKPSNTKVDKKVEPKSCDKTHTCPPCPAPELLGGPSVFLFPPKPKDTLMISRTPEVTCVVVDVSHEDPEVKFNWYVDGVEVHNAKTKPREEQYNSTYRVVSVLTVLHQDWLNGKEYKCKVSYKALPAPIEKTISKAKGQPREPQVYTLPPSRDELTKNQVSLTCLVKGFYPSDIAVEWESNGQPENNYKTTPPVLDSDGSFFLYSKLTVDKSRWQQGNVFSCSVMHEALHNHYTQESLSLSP
light: B1 light
notes: also called Ho Ab N325_15Y
With B21 the Ho/Con_2aR was 42.6 % (GpH7-B3/GpL16-k0 = 100).

B22: GpH7-B3 variant P271_09D/GpL16-k0 (antibody, human IgG1, kappa)
heavy: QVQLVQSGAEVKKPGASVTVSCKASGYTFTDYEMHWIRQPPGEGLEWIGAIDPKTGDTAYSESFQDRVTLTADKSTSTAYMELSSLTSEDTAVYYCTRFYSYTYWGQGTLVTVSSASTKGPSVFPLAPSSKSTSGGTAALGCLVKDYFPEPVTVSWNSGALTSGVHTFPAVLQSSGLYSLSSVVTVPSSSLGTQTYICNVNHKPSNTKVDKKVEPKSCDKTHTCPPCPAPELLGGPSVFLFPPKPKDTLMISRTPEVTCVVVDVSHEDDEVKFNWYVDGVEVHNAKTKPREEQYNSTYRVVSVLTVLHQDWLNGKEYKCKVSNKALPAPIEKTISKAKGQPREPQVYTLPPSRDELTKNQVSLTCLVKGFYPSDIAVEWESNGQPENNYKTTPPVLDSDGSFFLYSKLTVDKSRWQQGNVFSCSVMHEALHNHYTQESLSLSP
light: B1 light
notes: also called Ho Ab P271_09D
In the case of B22, the Ho/Con_2aR is reported as 92.4 % (GpH7-B3/GpL16-k0 = 100).

B23: GpH7-B3 variant N325_06M/GpL16-k0 (antibody, human IgG1, kappa)
heavy: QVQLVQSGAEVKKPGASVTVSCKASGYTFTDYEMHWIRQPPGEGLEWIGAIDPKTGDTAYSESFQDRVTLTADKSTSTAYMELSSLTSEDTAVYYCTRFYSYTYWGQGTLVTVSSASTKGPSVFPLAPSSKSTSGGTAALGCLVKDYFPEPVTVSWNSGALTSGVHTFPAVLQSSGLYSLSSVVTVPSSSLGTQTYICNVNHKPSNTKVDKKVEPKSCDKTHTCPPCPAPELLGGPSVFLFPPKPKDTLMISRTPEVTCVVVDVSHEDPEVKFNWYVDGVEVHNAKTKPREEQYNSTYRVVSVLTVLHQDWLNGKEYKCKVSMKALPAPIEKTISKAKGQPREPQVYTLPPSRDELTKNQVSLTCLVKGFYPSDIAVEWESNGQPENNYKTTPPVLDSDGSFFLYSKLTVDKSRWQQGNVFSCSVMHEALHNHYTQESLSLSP
light: B1 light
notes: also called Ho Ab N325_06M
For B23, the Ho/Con_2aR was 124 % (GpH7-B3/GpL16-k0 = 100).

B24: GpH7-B3 variant N325_07I/GpL16-k0 (antibody, human IgG1, kappa)
heavy: not shown
light: B1 light
notes: also called Ho Ab N325_07I
In the case of B24, the Ho/Con_2aR is reported as 77 % (GpH7-B3/GpL16-k0 = 100).

B25: GpH7-B3 variant L328_02A/GpL16-k0 (antibody, human IgG1, kappa)
heavy: not shown
light: B1 light
notes: also called Ho Ab L328_02A
For B25, the Ho/Con_2aR was 97 % (GpH7-B3/GpL16-k0 = 100).

B26: GpH7-A5/GpH7-B3 variant A330_19Q/GpL16-k0 (antibody, human IgG1, kappa)
heavy 1: not shown
heavy 2: not shown
light: B1 light
notes: also called He Ab A330_19Q
For B26, the He/Con_2aR was 104 % (GpH7-A5/GpH7-B3/GpL16-k0 = 100).

B27: GpH7-B3 variant P238_16H/GpL16-k0 (antibody, human IgG1, kappa)
heavy: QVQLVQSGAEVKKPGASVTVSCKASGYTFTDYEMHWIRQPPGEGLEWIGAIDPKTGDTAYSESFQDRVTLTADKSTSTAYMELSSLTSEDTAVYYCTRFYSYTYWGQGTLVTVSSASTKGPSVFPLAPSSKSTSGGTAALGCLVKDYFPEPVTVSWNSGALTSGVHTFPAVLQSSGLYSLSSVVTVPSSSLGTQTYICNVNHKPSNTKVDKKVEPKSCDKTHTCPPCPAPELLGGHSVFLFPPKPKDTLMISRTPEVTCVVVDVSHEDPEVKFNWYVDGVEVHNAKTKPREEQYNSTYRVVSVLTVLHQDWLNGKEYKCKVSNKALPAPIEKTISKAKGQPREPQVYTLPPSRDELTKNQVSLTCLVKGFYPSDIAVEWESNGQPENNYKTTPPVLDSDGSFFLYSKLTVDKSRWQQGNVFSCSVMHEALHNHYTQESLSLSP
light: B1 light
notes: also called Ho Ab P238_16H
With B27 the Ho/Con_2aR was 25.5 % (GpH7-B3/GpL16-k0 = 100).

B28: GpH7-B3 variant P238_09D/GpL16-k0 (antibody, human IgG1, kappa)
heavy: not shown
light: B1 light
notes: also called Ho Ab P238_09D
B28 was tested, and the Ho/Con_2aR was 13 % (GpH7-B3/GpL16-k0 = 100).

B29: GpH7-B3 variant N325_10E/GpL16-k0 (antibody, human IgG1, kappa)
heavy: not shown
light: B1 light
notes: also called Ho Ab N325_10E
For B29, the Ho/Con_2aR was 49.9 % (GpH7-B3/GpL16-k0 = 100).

B30: GpH7-A5/GpH7-B3 variant A330_05P/GpL16-k0 (antibody, human IgG1, kappa)
heavy 1: not shown
heavy 2: not shown
light: B1 light
notes: also called He Ab A330_05P
In the case of B30, the He/Con_2aR is reported as 115 % (GpH7-A5/GpH7-B3/GpL16-k0 = 100).

B31: GpH7-B3 variant P238_19Q/GpL16-k0 (antibody, human IgG1, kappa)
heavy: not shown
light: B1 light
notes: also called Ho Ab P238_19Q
B31 was tested, and the Ho/Con_2aR was 19.4 % (GpH7-B3/GpL16-k0 = 100).

B32: GpH7-A5/GpH7-B3 variant A330_15Y/GpL16-k0 (antibody, human IgG1, kappa)
heavy 1: not shown
heavy 2: not shown
light: B1 light
notes: also called He Ab A330_15Y
With B32 the He/Con_2aR was 102 % (GpH7-A5/GpH7-B3/GpL16-k0 = 100).

B33: GpH7-A5/GpH7-B3 variant E333_07I/GpL16-k0 (antibody, human IgG1, kappa)
heavy 1: not shown
heavy 2: not shown
light: B1 light
notes: also called He Ab E333_07I
B33 was tested, and the He/Con_2aR was 104 % (GpH7-A5/GpH7-B3/GpL16-k0 = 100).

B34: GpH7-B3 variant L328_09D/GpL16-k0 (antibody, human IgG1, kappa)
heavy: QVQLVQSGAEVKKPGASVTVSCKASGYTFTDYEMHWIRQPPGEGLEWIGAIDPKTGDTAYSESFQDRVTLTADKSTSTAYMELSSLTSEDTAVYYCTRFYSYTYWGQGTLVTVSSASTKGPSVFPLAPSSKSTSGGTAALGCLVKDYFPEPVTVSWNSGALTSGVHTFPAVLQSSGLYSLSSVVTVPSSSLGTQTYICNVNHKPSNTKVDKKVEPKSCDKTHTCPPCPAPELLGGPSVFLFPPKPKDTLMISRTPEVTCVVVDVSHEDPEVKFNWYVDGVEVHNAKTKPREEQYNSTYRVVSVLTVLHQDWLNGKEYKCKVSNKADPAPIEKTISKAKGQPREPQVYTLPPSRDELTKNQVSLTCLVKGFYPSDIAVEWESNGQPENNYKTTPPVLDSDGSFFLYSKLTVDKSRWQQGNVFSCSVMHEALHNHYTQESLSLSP
light: B1 light
notes: also called Ho Ab L328_09D
B34 was tested, and the Ho/Con_2aR was 68.8 % (GpH7-B3/GpL16-k0 = 100).

B35: GpH7-B3 variant N325_13S/GpL16-k0 (antibody, human IgG1, kappa)
heavy: not shown
light: B1 light
notes: also called Ho Ab N325_13S
B35 was tested, and the Ho/Con_2aR was 126 % (GpH7-B3/GpL16-k0 = 100).

B36: GpH7-B3 variant P238_20W/GpL16-k0 (antibody, human IgG1, kappa)
heavy: not shown
light: B1 light
notes: also called Ho Ab P238_20W
B36 was tested, and the Ho/Con_2aR was 25.7 % (GpH7-B3/GpL16-k0 = 100).

B37: GpH7-B3 variant P271_10E/GpL16-k0 (antibody, human IgG1, kappa)
heavy: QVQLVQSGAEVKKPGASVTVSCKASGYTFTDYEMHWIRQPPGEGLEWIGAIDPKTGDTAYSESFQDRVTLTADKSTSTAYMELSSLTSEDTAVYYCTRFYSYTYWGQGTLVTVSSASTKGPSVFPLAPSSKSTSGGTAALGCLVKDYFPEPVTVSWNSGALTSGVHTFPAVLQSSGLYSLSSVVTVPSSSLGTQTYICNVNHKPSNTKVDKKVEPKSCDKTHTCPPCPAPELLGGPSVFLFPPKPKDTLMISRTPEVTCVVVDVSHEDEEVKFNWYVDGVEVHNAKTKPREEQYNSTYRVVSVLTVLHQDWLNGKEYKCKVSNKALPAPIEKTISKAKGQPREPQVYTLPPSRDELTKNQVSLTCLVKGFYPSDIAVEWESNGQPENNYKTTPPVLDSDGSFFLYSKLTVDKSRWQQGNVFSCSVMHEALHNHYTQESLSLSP
light: B1 light
notes: also called Ho Ab P271_10E
In the case of B37, the Ho/Con_2aR is reported as 88.8 % (GpH7-B3/GpL16-k0 = 100).

B38: GpH7-B3 variant L328_10E/GpL16-k0 (antibody, human IgG1, kappa)
heavy: not shown
light: B1 light
notes: also called Ho Ab L328_10E
In the case of B38, the Ho/Con_2aR is reported as 48.1 % (GpH7-B3/GpL16-k0 = 100).

B39: GpH7-B3 variant P331_02A/GpL16-k0 (antibody, human IgG1, kappa)
heavy: not shown
light: B1 light
notes: also called Ho Ab P331_02A
With B39 the Ho/Con_2aR was 102 % (GpH7-B3/GpL16-k0 = 100).

B40: GpH7-B3 variant P331_03V/GpL16-k0 (antibody, human IgG1, kappa)
heavy: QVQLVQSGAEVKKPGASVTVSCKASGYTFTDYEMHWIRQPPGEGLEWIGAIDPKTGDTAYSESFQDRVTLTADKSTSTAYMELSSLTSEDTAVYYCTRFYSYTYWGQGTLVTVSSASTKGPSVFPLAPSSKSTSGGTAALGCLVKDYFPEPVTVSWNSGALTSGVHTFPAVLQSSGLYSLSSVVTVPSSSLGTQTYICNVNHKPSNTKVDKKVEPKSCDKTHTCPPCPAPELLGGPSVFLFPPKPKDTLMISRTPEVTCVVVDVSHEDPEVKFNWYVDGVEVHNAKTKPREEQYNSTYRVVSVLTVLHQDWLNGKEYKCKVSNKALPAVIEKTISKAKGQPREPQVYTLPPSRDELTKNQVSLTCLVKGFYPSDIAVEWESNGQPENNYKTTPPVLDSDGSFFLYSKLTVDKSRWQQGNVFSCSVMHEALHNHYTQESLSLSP
light: B1 light
notes: also called Ho Ab P331_03V
With B40 the Ho/Con_2aR was 89.1 % (GpH7-B3/GpL16-k0 = 100).

B41: GpH7-B3 variant P271_08L/GpL16-k0 (antibody, human IgG1, kappa)
heavy: not shown
light: B1 light
notes: also called Ho Ab P271_08L
In the case of B41, the Ho/Con_2aR is reported as 102 % (GpH7-B3/GpL16-k0 = 100).

B42: GpH7-B3 variant P238_10E/GpL16-k0 (antibody, human IgG1, kappa)
heavy: not shown
light: B1 light
notes: also called Ho Ab P238_10E
B42 was tested, and the Ho/Con_2aR was 21.4 % (GpH7-B3/GpL16-k0 = 100).

B43: GpH7-B3 variant P238_04F/GpL16-k0 (antibody, human IgG1, kappa)
heavy: not shown
light: B1 light
notes: also called Ho Ab P238_04F
B43 was tested, and the Ho/Con_2aR was 146 % (GpH7-B3/GpL16-k0 = 100).

B44: GpH7-B3 variant P331_04F/GpL16-k0 (antibody, human IgG1, kappa)
heavy: not shown
light: B1 light
notes: also called Ho Ab P331_04F
B44 was tested, and the Ho/Con_2aR was 106 % (GpH7-B3/GpL16-k0 = 100).
